The values that follow come from the supplement of paper PMC5998384.

The test system of data set [1] is HeLa Kyoto. Briefly: thermal stability score vs G1/S (z-score of summed log2 fold changes over temperatures); higher = more thermally stable than in G1/S.
Data set [2] relates to HeLa Kyoto. Put plainly: solubility in G1/S (NP-40 vs SDS abundance) (log2 ratio); higher = more soluble. The settings on record: cell cycle stage: G1/S.
The test system of data set [3] is HeLa Kyoto. Put plainly: melting temperature (median over replicates), in situ; higher = more thermally stable.
Data set [4] relates to HeLa Kyoto. Briefly: solubility change mitosis vs G1/S (difference of NP-40 vs SDS log2 ratios) (log2 ratio difference); higher = more soluble in mitosis.
[5] abbreviates: cell cycle stage: early G1 (4.5 h after nocodazole release).
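For melting temperature (median over replicates), in situ in this document: HeLa Kyoto cells synchronized by double thymidine or nocodazole block, proteins quantified by TMT10plex mass spectrometry, three independent biological replicates.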
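For solubility change mitosis vs G1/S (difference of NP-40 vs SDS log2 ratios) in this document: synchronized HeLa Kyoto cells (double thymidine block for G1/S, nocodazole release for mitosis), protein amounts in NP-40 versus SDS lysates quantified by mass spectrometry, three biological replicates.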
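For solubility in G1/S (NP-40 vs SDS abundance) in this document: HeLa Kyoto cells arrested at G1/S by double thymidine block, proteins quantified by TMT10plex mass spectrometry in mild NP-40 versus SDS extracts, three biological replicates.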
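For thermal stability score vs G1/S (z-score of summed log2 fold changes over temperatures) in this document: synchronized HeLa Kyoto cells, proteins quantified by TMT10plex mass spectrometry, three biological replicates, mitosis taken 0.5 h after nocodazole release, G1/S directly after double thymidine block.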

In the case of “MKLKQRVVLLAILLVIFIFTKVFLIDNLDTSAANREDQRAFHRMMTGLRVELAPKLDHTLQSPWEIAAQWVVPREVYPEETPELGAVMHAMATKKIIKADVGYKGTQLKALLILEGGQKVVFKPKRYSRDHVVEGEPYAGYDRHNAEVAAFHLDRILGFHRAPLVVGRFVNLRTEIKPVATEQLLSTFLTVGNNTCFYGKCYYCRETEPACADGDIMEGSVTLWLPDVWPLQKHRHPWGRTYREGKLARWEYDESYCDAVKKTSPYDSGPRLLDIIDTAVFDYLIGNADRHHYESFQDDEGASMLILLDNAKSFGNPSLDERSILAPLYQCCIIRVSTWNRLNYLKNGVLKSALKSAMAHDPISPVLSDPHLDAVDQRLLSVLATVKQCTDQFGMDTVLVEDRMPLSHL [FAM20B]”, the thermal stability score in the data set on HeLa Kyoto [1] (setting [5]) was 2.65; with HeLa Kyoto [1] (cell cycle stage: mitosis), 2.53. Moreover, in the data set on HeLa Kyoto [2], the “solubility in G1/S (log2)” value was -0.162. In addition, the melting temperature in the data set with HeLa Kyoto [3] (cell cycle stage: G1/S) amounted to 51.8 °C; in the data set with HeLa Kyoto [3] (cell cycle stage: mitosis) it was 53.3 °C. In addition, the “solubility change mitosis (log2)” value in the data set with HeLa Kyoto [4] worked out at 0.0415.
For “MKLSLTKVVNGCRLGKIKNLGKTGDHTMDIPGCLLYTKTGSAPHLTHHTLHNIHGVPAMAQLTLSSLAEHHEVLTEYKEGVGKFIGMPESLLYCSLHDPVSPCPAGYVTNKSVSVWSVAGRVEMTVSKFMAIQKALQPDWFQCLSDGEVSCKEATSIKRVRKSVDRSLLFLDNCLRLQEESEVLQKSVIIGVIEGGDVMEERLRSARETAKRPVGGFLLDGFQGNPTTLEARLRLLSSVTAELPEDKPRLISGVSRPDEVLECIERGVDLFESFFPYQVTERGCALTFSFDYQPNPEETLLQQNGTQEEIKCMDQIKKIETTGCNQEITSFEINLKEKKYQEDFNPLVRGCSCYCCKNHTRAYIHHLLVTNELLAGVLLMMHNFEHYFGFFHYIREALKSDKLAQLKELIHRQAS [QTRTD1]”, the thermal stability score was -0.725 in the data set on HeLa Kyoto [1] (setting [5]) and -2.32 with HeLa Kyoto [1] (cell cycle stage: mitosis). Also, the “solubility in G1/S (log2)” value in the data set with HeLa Kyoto [2] came out at 0.116. For the same sequence, the values for the melting temperature in the data set with HeLa Kyoto [3] (cell cycle stage: G1/S) and with HeLa Kyoto [3] (cell cycle stage: mitosis) were 54.6 °C and 54.3 °C, respectively. For the same sequence, the “solubility change mitosis (log2)” value in the data set on HeLa Kyoto [4] was -0.121.
Regarding “MKLWVSALLMAWFGVLSCVQAEFFTSIGHMTDLIYAEKELVQSLKEYILVEEAKLSKIKSWANKMEALTSKSAADAEGYLAHPVNAYKLVKRLNTDWPALEDLVLQDSAAGFIANLSVQRQFFPTDEDEIGAAKALMRLQDTYRLDPGTISRGELPGTKYQAMLSVDDCFGMGRSAYNEGDYYHTVLWMEQVLKQLDAGEEATTTKSQVLDYLSYAVFQLGDLHRALELTRRLLSLDPSHERAGGNLRYFEQLLEEEREKTLTNQTEAELATPEGIYERPVDYLPERDVYESLCRGEGVKLTPRRQKRLFCRYHHGNRAPQLLIAPFKEEDEWDSPHIVRYYDVMSDEEIERIKEIAKPKLARATVRDPKTGVLTVASYRVSKSSWLEEDDDPVVARVNRRMQHITGLTVKTAELLQVANYGVGGQYEPHFDFSRNDERDTFKHLGTGNRVATFLNYMSDVEAGGATVFPDLGAAIWPKKGTAVFWYNLLRSGEGDYRTRHAACPVLVGCKWVSNKWFHERGQEFLRPCGSTEVD [P4HA2]”, the thermal stability score in the data set with HeLa Kyoto [1] (setting [5]) was 2.83; with HeLa Kyoto [1] (cell cycle stage: mitosis), 4.61. In the data set on HeLa Kyoto [2], the “solubility in G1/S (log2)” value worked out at 0.0555. The values for the melting temperature in the data set with HeLa Kyoto [3] (cell cycle stage: G1/S) and with HeLa Kyoto [3] (cell cycle stage: mitosis) were 54.2 °C and 54.1 °C, respectively. Besides, the “solubility change mitosis (log2)” value in the data set with HeLa Kyoto [4] is -0.0711.
With “MKMKLFQTICRQLRSSKFSVESAALVAFSTSSYSCGRKKKVNPYEEVDQEKYSNLVQSVLSSRGVAQTPGSVEEDALLCGPVSKHKLPNQGEDRRVPQNWFPIFNPERSDKPNASDPSVPLKIPLQRNVIPSVTRVLQQTMTKQQVFLLERWKQRMILELGEDGFKEYTSNVFLQGKRFHEALESILSPQETLKERDENLLKSGYIESVQHILKDVSGVRALESAVQHETLNYIGLLDCVAEYQGKLCVIDWKTSEKPKPFIQSTFDNPLQVVAYMGAMNHDTNYSFQVQCGLIVVAYKDGSPAHPHFMDAELCSQYWTKWLLRLEEYTEKKKNQNIQKPEYSE [MGME1]”, the thermal stability score in the data set with HeLa Kyoto [1] (setting [5]) is -0.736; in the data set with HeLa Kyoto [1] (cell cycle stage: mitosis) it was -1.05. In the data set with HeLa Kyoto [2], the “solubility in G1/S (log2)” value stood at 0.384. Also, the melting temperature came to 52.9 °C with HeLa Kyoto [3] (cell cycle stage: G1/S) and 53.5 °C in the data set on HeLa Kyoto [3] (cell cycle stage: mitosis). Further, the “solubility change mitosis (log2)” value with HeLa Kyoto [4] was found to be 0.0664.
“MKPSGEDQAALAAGPWEECFQAAVQLALRAGQIIRKALTEEKRVSTKTSAADLVTETDHLVEDLIISELRERFPSHRFIAEEAAASGAKCVLTHSPTWIIDPIDGTCNFVHRFPTVAVSIGFAVRQELEFGVIYHCTEERLYTGRRGRGAFCNGQRLRVSGETDLSKALVLTEIGPKRDPATLKLFLSNMERLLHAKAHGVRVIGSSTLALCHLASGAADAYYQFGLHCWDLAAATVIIREAGGIVIDTSGGPLDLMACRVVAASTREMAMLIAQALQTINYGRDDEK [IMPA2]”: the figures for the thermal stability score in the data set with HeLa Kyoto [1] (setting [5]) and in the data set with HeLa Kyoto [1] (cell cycle stage: mitosis) were -0.528 and -0.16, respectively. The “solubility in G1/S (log2)” value with HeLa Kyoto [2] worked out at 0.109. For the same sequence, the results for the melting temperature in the data set with HeLa Kyoto [3] (cell cycle stage: G1/S) and with HeLa Kyoto [3] (cell cycle stage: mitosis) were 58.2 °C and 60.1 °C, respectively. Also, in the data set with HeLa Kyoto [4], the “solubility change mitosis (log2)” value is -0.261.
